This passage reports OD450 results from patent publication US20250320312A1 (OXITOPE PHARMA B V, published 2025).

Test in all cases: scFv ELISA
Test [1] concerns the target T1, Peptide 8: Biotin-AEAAAKEAAAKEAAAKEAAAKAAA-Tyr-acid (N-terminal biotin; C-terminal acid).
T1 construct: control peptide without PC
T1 peptide: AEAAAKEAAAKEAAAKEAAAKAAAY
The protocol: (§1) For ELISA analysis of scFv binding, 96-well polystyrene plates were coated with Peptide 1, 4, 5, 8 or 100 μL BSA (10 μg/mL) in PBS at 4° C. overnight. Plates were washed three times with PBS-Tween and blocked with 100 μL 1% BSA-TBS for 1 hour at room temperature. 96-well streptavidin coated plates were coated with 100 μL biotinylated PC-peptides (1 μg/mL) in PBS for 1 hour at room temperature.
(§2) All plates were washed three times with PBS-Tween before 40 μL aliquots of PPE were added to assay plates along with 50 μL 10% BSA, and plates were incubated for 1 hour at room temperature. After washing, […] HRP conjugated anti-V5 in 5% BSA was added, and plates were incubated at room temperature for 30 mins. Plates were washed and 100 μL TMB substrate was added. Color was left to develop at room temperature before the reaction was stopped with 100 μL 1N HCl. The amount of scFv bound to each well was quantitated from absorbance measurement at 450 nm (OD450).

Test [2] concerns the target T2, Peptide 4: Biotin-AGGGGSGGGGSGGGGSAAA-Tyr-acid (N-terminal biotin; C-terminal acid).
T2 construct: control peptide without PC
T2 peptide: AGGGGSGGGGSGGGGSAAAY
The protocol:
as §1, §2

Test [3] deals with Peptide 1: Biotin-…-[Tyr(PC)]-acid.
Test [4] addresses BSA (UniProt P02769).
Test [5] has as its target Peptide 5: Biotin-…-[Tyr(PC)]-acid.

Sequence of BSA (P02769 25-607 limits assumed): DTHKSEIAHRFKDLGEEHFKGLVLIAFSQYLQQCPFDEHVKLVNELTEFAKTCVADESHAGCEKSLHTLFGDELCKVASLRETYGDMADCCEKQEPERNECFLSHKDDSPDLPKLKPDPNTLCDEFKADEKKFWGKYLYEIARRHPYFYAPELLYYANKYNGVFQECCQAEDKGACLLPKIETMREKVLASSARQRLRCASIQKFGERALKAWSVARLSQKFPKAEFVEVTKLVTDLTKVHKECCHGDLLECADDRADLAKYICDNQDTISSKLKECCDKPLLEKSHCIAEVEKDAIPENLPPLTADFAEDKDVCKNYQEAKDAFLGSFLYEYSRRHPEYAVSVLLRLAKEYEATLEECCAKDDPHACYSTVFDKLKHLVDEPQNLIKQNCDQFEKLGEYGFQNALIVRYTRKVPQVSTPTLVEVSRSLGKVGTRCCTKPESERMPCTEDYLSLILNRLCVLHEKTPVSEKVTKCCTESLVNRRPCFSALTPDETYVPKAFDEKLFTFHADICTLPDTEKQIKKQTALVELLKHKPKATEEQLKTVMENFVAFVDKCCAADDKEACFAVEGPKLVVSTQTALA

B1: PcOxP_DB01_B07 (scFv, V domains shown)
VH: EVQLLESGGGLVQPGGSLRLSCAASGFTFSDYYMEWVRQAPGKGLEWVAASRNKANDYTTEYADSVKGRFTISRDNSKNTLYLQMNSLRAEDTAVYYCARDYYGSSYWYFDVWGQGTLVTVSS
VL: DIQMTQSPSSLSASVGDRVTITCTASESLYSSKHKVHYLAWYQQKPGKAPKLLIYGASNRYIGVPSRFSGSGSGTDFTLTISSLQPEDFATYYCAQFYSYPLTFGGGTKVEIK
notes: scFv in periplasmic extract
Take B1: the OD450 is 0.05 OD450 in test [1]; 0.06 OD450 in test [2]; 1.07 OD450 in test [3]; 0.11 OD450 in test [4]; 1.36 OD450 in test [5].

B2: PcOxP_DB01_B09 (scFv, V domains shown)
VH: EVQLLESGGGLVQPGGSLRLSCAASGFTFSDYYMEWVRQAPGKGLEWVAASRNKANDYTTEYADSVKGRFTISRDNSKNTLYLQMNSLRAEDTAVYYCARDYYGSSYWYFDVWGQGTLVTVSS
VL: DIQMTQSPSSLSASVGDRVTITCTASESLYSSKHKVHYLAWYQQKPGKAPKLLIYGASNRYTGVPSRFSGSGSGTDFTLTISSLQPEDFATYYCAQFYHYPLTFGGGTKVEIK
notes: scFv in periplasmic extract
On to B2, for which the OD450 came to 0.05 OD450 in test [1]; 0.05 OD450 in test [2]; 1 OD450 in test [3]; 0.1 OD450 in test [4]; 1.42 OD450 in test [5].

B3: PcOxP_DB01_B01 (scFv, V domains shown)
VH: EVQLLESGGGLVQPGGSLRLSCAASGFTFSDQYIEWVRQAPGKGLEWVAASRNKANDYTTEYADSVKGRFTISRDNSKNTLYLQMNSLRAEDTAVYYCARDYLGSSYWYFDVWGQGTLVTVSS
VL: DIQMTQSPSSLSASVGDRVTITCTASESLYSSKHKVHYLAWYQQKPGKAPKLLIYGASHRYIGVPSRFSGSGSGTDFTLTISSLQPEDFATYYCAQFYAYPLTFGGGTKVEIK
notes: scFv in periplasmic extract
Turning to B3, the OD450 in test [1] was found to be 0.05 OD450; in test [2], 0.07 OD450; in test [3], 0.87 OD450; in test [4] it was 0.1 OD450; in test [5], 0.9 OD450.

B4: PcOxP_DB01_B04 (scFv, V domains shown)
VH: EVQLLESGGGLVQPGGSLRLSCAASGFTFSDGYMEWVRQAPGKGLEWVAASRNKANDYTTEYADSVKGRFTISRDNSKNTLYLQMNSLRAEDTAVYYCARDYYGSSYWYFDVWGQGTLVTVSS
VL: DIQMTQSPSSLSASVGDRVTITCTASESLYSSKHKVHYLAWYQQKPGKAPKLLIYGASNRYIGVPSRFSGSGSGTDFTLTISSLQPEDFATYYCAQFYSYPLTFGGGTKVEIK
notes: scFv in periplasmic extract
B4: the OD450 in test [1] stood at 0.05 OD450; in test [2] it was 0.06 OD450; in test [3], 0.57 OD450; in test [4], 0.08 OD450; in test [5], 1.02 OD450.

B5: PcOxP_DB01_A06 (scFv, V domains shown)
VH: EVQLLESGGGLVQPGGSLRLSCAASGFTFSDYYMEWVRQAPGKGLEWVAASRNKANDYTTEYADSVKGRFTISRDNSKNTLYLQMNSLRAEDTAVYYCARDYYGSSYWYFDVWGQGTLVTVSS
VL: DIQMTQSPSSLSASVGDRVTITCTASESLYSSKHKVHYLAWYQQKPGKAPKLLIYGASNRYIGVPSRFSGSGSGTDFTLTISSLQPEDFATYYCAEFYSYPLTFGGGTKVEIK
notes: scFv in periplasmic extract
On to B5, for which the OD450 in test [1] is 0.06 OD450; in test [2] it was 0.06 OD450; in test [3] it was 0.74 OD450; in test [4] it was 0.1 OD450; in test [5], 1.18 OD450.

B6: PcOxP_DB01_C03 (scFv, V domains shown)
VH: EVQLLESGGGLVQPGGSLRLSCAASGFTFSDQYMEWVRQAPGKGLEWVAASRNKANDYTTEYADSVKGRFTISRDNSKNTLYLQMNSLRAEDTAVYYCARDYYGSSYWYFDVWGQGTLVTVSS
VL: DIQMTQSPSSLSASVGDRVTITCTASESLYSSKHKVHYLAWYQQKPGKAPKLLIYGASNRYIGVPSRFSGSGSGTDFTLTISSLQPEDFATYYCAQFYQYPLTFGGGTKVEIK
notes: scFv in periplasmic extract
For B6, the OD450 stood at 0.05 OD450 in test [1]; 0.06 OD450 in test [2]; 0.98 OD450 in test [3]; 0.1 OD450 in test [4]; 1.37 OD450 in test [5].

B7: PcOxP_DB01_B08 (scFv, V domains shown)
VH: EVQLLESGGGLVQPGGSLRLSCAASGFTFSDSYMEWVRQAPGKGLEWVAASRNKANDYTTSYADSVKGRFTISRDNSKNTLYLQMNSLRAEDTAVYYCARDYYGSSYWYFDVWGQGTLVTVSS
VL: DIQMTQSPSSLSASVGDRVTITCTASESLYSSKHKVHYLAWYQQKPGKAPKLLIYGASNRYIGVPSRFSGSGSGTDFTLTISSLQPEDFATYYCAQFYSYPLTFGGGTKVEIK
notes: scFv in periplasmic extract
In the case of B7, the OD450 came out at 0.05 OD450 in test [1]; 0.06 OD450 in test [2]; 0.41 OD450 in test [3]; 0.1 OD450 in test [4]; 0.89 OD450 in test [5].

B8: PcOxP_DB01_C06 (scFv, V domains shown)
VH: EVQLLESGGGLVQPGGSLRLSCAASGFEFSDNYMEWVRQAPGKGLEWVAASRNKANDYTTEYADSVKGRFTISRDNSKNTLYLQMNSLRAEDTAVYYCARDYYGSSYWYFDVWGQGTLVTVSS
VL: DIQMTQSPSSLSASVGDRVTITCTASESLYSSKHKVHYLAWYQQKPGKAPKLLIYGASNRFIGVPSRFSGSGSGTDFTLTISSLQPEDFATYYCAQFYYYPLTFGGGTKVEIK
notes: scFv in periplasmic extract
For the molecule B8, the OD450 turned out to be 0.05 OD450 in test [1]; 0.05 OD450 in test [2]; 1.18 OD450 in test [3]; 0.08 OD450 in test [4]; 1.31 OD450 in test [5].

B9: PcOxP_DB01_B11 (scFv, V domains shown)
VH: EVQLLESGGGLVQPGGSLRLSCAASGFTFEDFYMEWVRQAPGKGLEWVAASRNKANDYTTEYADSVKGRFTISRDNSKNTLYLQMNSLRAEDTAVYYCARDYFGSSYWYFDVWGQGTLVTVSS
VL: DIQMTQSPSSLSASVGDRVTITCTASESLYSSKHKVHYLAWYQQKPGKAPKLLIYGASNRYHGVPSRFSGSGSGTDFTLTISSLQPEDFATYYCAQFYSYPLTFGGGTKVEIK
notes: scFv in periplasmic extract
Turning to B9, the OD450 is 0.04 OD450 in test [1]; 0.05 OD450 in test [2]; 1.11 OD450 in test [3]; 0.09 OD450 in test [4]; 1.32 OD450 in test [5].

B10: PcOxP_DB01_C04 (scFv, V domains shown)
VH: EVQLLESGGGLVQPGGSLRLSCAASGFQFSDFYMEWVRQAPGKGLEWVAASRNKANDYTTEYADSVKGRFTISRDNSKNTLYLQMNSLRAEDTAVYYCARDYYGSSYWYFDVWGQGTLVTVSS
VL: DIQMTQSPSSLSASVGDRVTITCTASESLYSSKHKVHYLAWYQQKPGKAPKLLIYGASNRYIGVPSRFSGSGSGTDFTLTISSLQPEDFATYYCAQFYYYPLTFGGGTKVEIK
notes: scFv in periplasmic extract
As for B10, the OD450 amounted to 0.05 OD450 in test [1]; 0.05 OD450 in test [2]; 1.38 OD450 in test [3]; 0.08 OD450 in test [4]; 1.42 OD450 in test [5].

B11: PcOxP_DB01_A12 (scFv, V domains shown)
VH: EVQLLESGGGLVQPGGSLRLSCAASGFGFSDFYMEWVRQAPGKGLEWVAASRNKWNDYTTEYADSVKGRFTISRDNSKNTLYLQMNSLRAEDTAVYYCARDYYGSSYWYYDVWGQGTLVTVSS
VL: DIQMTQSPSSLSASVGDRVTITCTASESLYSSKHKVHYLAWYQQKPGKAPKLLIYGASNREIGVPSRFSGSGSGTDFTLTISSLQPEDFATYYCQQFYSYPLTFGGGTKVEIK
notes: scFv in periplasmic extract
Regarding B11, the OD450 in test [1] was 0.05 OD450; in test [2] it was 0.06 OD450; in test [3] it was 0.29 OD450; in test [4], 0.09 OD450; in test [5], 1.04 OD450.

B12: PcOxP_DB01_C05 (scFv, V domains shown)
VH: EVQLLESGGGLVQPGGSLRLSCAASGFTFSDGYMEWVRQAPGKGLEWVAASRNKANDYTTEYADSVKGRFTISRDNSKNTLYLQMNSLRAEDTAVYYCARDYYGSSYWYFDVWGQGTLVTVSS
VL: DIQMTQSPSSLSASVGDRVTITCTASESLYSSKHKVHYLAWYQQKPGKAPKLLIYGSSNRYIGVPSRFSGSGSGTDFTLTISSLQPEDFATYYCAQFYAYPLTFGGGTKVEIK
notes: scFv in periplasmic extract
As to B12, the OD450 in test [1] amounted to 0.06 OD450; in test [2], 0.06 OD450; in test [3], 0.79 OD450; in test [4] it was 0.11 OD450; in test [5] it was 1.11 OD450.

B13: PcOxP_DB01_B05 (scFv, V domains shown)
VH: EVQLLESGGGLVQPGGSLRLSCAASGFTASDFYMEWVRQAPGKGLEWVAASRNKWNDYTTEYADSVKGRFTISRDNSKNTLYLQMNSLRAEDTAVYYCARDYYGSSYWYFDVWGQGTLVTVSS
VL: DIQMTQSPSSLSASVGDRVTITCTASESLYSSKHKVHYLAWYQQKPGKAPKLLIYGASSLQIGVPSRFSGSGSGTDFTLTISSLQPEDFATYYCAQFYSYPLTFGGGTKVEIK
notes: scFv in periplasmic extract
In the case of B13, the OD450 was 0.05 OD450 in test [1]; 0.05 OD450 in test [2]; 0.23 OD450 in test [3]; 0.1 OD450 in test [4]; 0.74 OD450 in test [5].

B14: PcOxP_DB01_C01 (scFv, V domains shown)
VH: EVQLLESGGGLVQPGGSLRLSCAASGFTFSDFYMEWVRQAPGKGLEWVAASRNKANDYTTEYADSVKGRFTISRDNSKNTLYLQMNSLRAEDTAVYYCARDYYGSSYWYFDVWGQGTLVTVSS
VL: DIQMTQSPSSLSASVGDRVTITCVASESLYSSKHKVHYLAWYQQKPGKAPKLLIYGASNRYIGVPSRFSGSGSGTDFTLTISSLQPEDFATYYCAQFYSYPLTFGGGTKVEIK
notes: scFv in periplasmic extract
As to B14, the OD450 amounted to 0.05 OD450 in test [1]; 0.06 OD450 in test [2]; 0.71 OD450 in test [3]; 0.11 OD450 in test [4]; 1.13 OD450 in test [5].
